The results in this text go back to paper PMC6212785, “RGG-box in hnRNPA1 specifically recognizes the telomere G-quadruplex DNA and enhances the G-quadruplex unfolding ability of UP1 domain”.

Data set [1] addresses T1, UP1 (UniProt P09651-2 1-196). Nature of the data set: ITC; 100 mM NaCl; ITC/CD: 20 mM Tris-Cl pH 8, 100 mM NaCl or KCl, 25 C; NMR: 10 mM sodium or potassium phosphate pH 6.5, 100 mM NaCl or KCl, 298 K. Particulars: protein: recombinant, tags: C-terminal 6xHis (pET28a), chain copies: 2.
The target in data set [2] is T2, UP1+RGG (UniProt P09651-2 1-249). Described as above. The settings on record: protein: recombinant, tags: C-terminal 6xHis (pET28a), chain copies: 2.
T2 sequence (P09651 1-249): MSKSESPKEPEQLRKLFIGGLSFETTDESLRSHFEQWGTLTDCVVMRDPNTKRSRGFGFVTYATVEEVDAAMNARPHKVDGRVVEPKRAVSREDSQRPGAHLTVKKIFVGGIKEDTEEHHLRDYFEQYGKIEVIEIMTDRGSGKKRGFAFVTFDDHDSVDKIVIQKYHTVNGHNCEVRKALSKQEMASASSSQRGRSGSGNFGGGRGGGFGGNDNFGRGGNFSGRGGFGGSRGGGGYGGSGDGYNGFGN
Data set [3] concerns the target T1, UP1. Put plainly: ITC; 100 mM KCl; ITC/CD: 20 mM Tris-Cl pH 8, 100 mM NaCl or KCl, 25 C; NMR: 10 mM sodium or potassium phosphate pH 6.5, 100 mM NaCl or KCl, 298 K. The settings on record: protein: recombinant, tags: C-terminal 6xHis (pET28a), chain copies: 2. (In general: In ITC the heat of successive injections is recorded.)
Data set [4] concerns the target T2, UP1+RGG. The data set is described as above. The settings on record: protein: recombinant, tags: C-terminal 6xHis (pET28a), chain copies: 2.
Another data set addresses RGG-box (UniProt P09651-2 197-249). Nature of the data set: NMR 15N-1H HSQC titration; apparent Kd, global fit of 14 residues (individual 151-433 uM); ITC/CD: 20 mM Tris-Cl pH 8, 100 mM NaCl or KCl, 25 C; NMR: 10 mM sodium or potassium phosphate pH 6.5, 100 mM NaCl or KCl, 298 K. Particulars: protein: recombinant; tags: N-terminal GST removed by TEV; intramolecular G4 (monomeric).

T1 sequence (P09651 1-196): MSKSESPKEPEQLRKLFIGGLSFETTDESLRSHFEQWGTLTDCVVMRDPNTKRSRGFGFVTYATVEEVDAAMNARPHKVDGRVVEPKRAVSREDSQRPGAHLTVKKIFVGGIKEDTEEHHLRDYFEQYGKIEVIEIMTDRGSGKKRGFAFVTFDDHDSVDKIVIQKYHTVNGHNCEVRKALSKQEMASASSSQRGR
Sequence of RGG-box (P09651 197-249): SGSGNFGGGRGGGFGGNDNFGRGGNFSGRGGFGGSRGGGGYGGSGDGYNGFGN

For AGGATTAGGATTAGGATTAGGA (ssDNA) [Tel22ss], the Kd with UP1 [1] (single strand) was 1200 ± 310 nM; in the data set with UP1+RGG [2] (single strand), 1040 ± 150 nM; with UP1 [3] (single strand), 1230 ± 140 nM; with UP1+RGG [4] (single strand), 1110 ± 150 nM.

Take AGGGTTAGGGTTAGGGTTAGGG (structured_DNA) [Tel22 G-quadruplex]: the Kd came out at 710 ± 140 nM in the data set with UP1 [1] (intramolecular G4 (monomeric)); 600 ± 130 nM in the data set with UP1+RGG [2] (intramolecular G4 (monomeric)); 5620 ± 1090 nM in the data set with UP1 [3] (intramolecular G4 (monomeric)); 4850 ± 600 nM with UP1+RGG [4] (intramolecular G4 (monomeric)); 349000 ± 35000 nM with RGG-box.
